Assay results: the supplement of paper PMC7877785
± gives the uncertainty stated by the source.

Assay: self-splicing fitness, log relative to wild type (ln ratio); higher = more splicing; Tetrahymena group I intron in knt gene, E. coli kanamycin selection, DiMSum; sequences stand for … in CUCUCU…GGAGGGAAAAGUUAUCAGGCAUGCACCUGGUAGCUAGUCUUUAAACCAAUAGAUUGCAUCGGUUUAAAAGGCAAGACCGUCAAAUUGCGGGAAAGGGGUCAACAGCCGUUCAGUACCAAGUCUCAGGGGAAACUUUGAGAUGGCCUUGCAAAGGGUAUGGUAAUAAGCUGACGGACAUGGUCCUAACCACGCAGCCAAGUCCUAAGUCAACAGAUCUUCUGUUGAUAUGGAUGCAGUUCACAGACUAAAUGUCGGUCGGGGAAGAUGUAUUCUUCUCAUAAGAUAUAGUCGGACCUCUCCUUAAUGGGAGCUAGCGGAUGAAGUGAUGCAACACUGGAGCCGCUGGGAACUAAUUUGUAUGCGAAAGUAUAUUGAUUAGUUUUGGAGUACUCGUGGUCG
Procedure, shortened: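 Fitness was computed with DiMSum as the error-weighted combination of replicate fold changes, kanamycin versus none, each normalised to wild type. The library randomised all eight intron nucleotides of the P1ex region, with the intron placed in the knt kanamycin-resistance gene on pET-22b(+) in E. coli BL21(DE3). Six replicate transformations were grown overnight at 37°C or 30°C on LB agar with or without 25 μg/mL kanamycin, plus 100 μg/mL carbenicillin, 50 μM IPTG and 0.2% rhamnose. Pooled colonies were amplicon-sequenced on an Illumina HiSeq 2500.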

| Sequence | self-splicing fitness (ln) (30 °C) | self-splicing fitness (ln) (37 °C) |
| --- | --- | --- |
| UCACAGCAAUAUUACGGAUG | -2.4 ± 0.12 | -1.89 ± 0.13 |
| UCACAGCAAUAUUACGGGAU | -3.45 ± 0.23 | -2.36 ± 0.24 |
| UCACAGCAAUAUUACGGGUG | -2.37 ± 0.09 | -1.67 ± 0.083 |
| UCACAGCAAUAUUACGGGUU | -3.77 ± 0.16 | -2.33 ± 0.12 |
| UCACAGCAAUAUUACGGUCU | -1.01 ± 0.081 | -1.67 ± 0.11 |
| UCACAGCAAUAUUACGUCCC | -4.32 ± 0.42 | -2.01 ± 0.45 |
| UCACAGCAAUAUUACGUGGU | -4.05 ± 0.19 | -3.15 ± 0.18 |
| UCACAGCAAUAUUACGUGUC | -3.55 ± 0.2 | -2.6 ± 0.2 |
| UCACAGCAAUAUUACGUUAC | -3.74 ± 0.23 | -2.06 ± 0.16 |
| UCACAGCAAUAUUACGUUAG | -2.17 ± 0.077 | -1.49 ± 0.088 |
| UCACAGCAAUAUUACGUUCU | -3.63 ± 0.22 | -1.5 ± 0.13 |
| UCAGAGCAAUAUUACGAACC |  | -1.15 ± 0.42 |
| UCAGAGCAAUAUUACGAACG | -3.12 ± 0.32 | -1.85 ± 0.3 |
| UCAGAGCAAUAUUACGACAC | -2.63 ± 0.37 | -0.191 ± 0.45 |
| UCAGAGCAAUAUUACGACGG | -0.865 ± 0.14 | 0.304 ± 0.18 |
| UCAGAGCAAUAUUACGAGCA |  | -2.06 ± 0.48 |
| UCAGAGCAAUAUUACGAUCG |  | -2.39 ± 0.33 |
| UCAGAGCAAUAUUACGCCCA | -2.06 ± 0.44 |  |
| UCAGAGCAAUAUUACGCGAA | -2.61 ± 0.21 | -3.1 ± 0.29 |
| UCAGAGCAAUAUUACGCGCG | -2.44 ± 0.19 | -1.79 ± 0.18 |
| UCAGAGCAAUAUUACGCUAU | -3.45 ± 0.48 | -2.08 ± 0.41 |
| UCAGAGCAAUAUUACGCUUA | -2.91 ± 0.24 | -2.48 ± 0.18 |
| UCAGAGCAAUAUUACGCUUC | -1.74 ± 0.24 | -2.73 ± 0.48 |
| UCAGAGCAAUAUUACGGACU |  | -1.77 ± 0.3 |
| UCAGAGCAAUAUUACGGGCC | -3.69 ± 0.44 |  |

| Sequence | self-splicing fitness (ln) (30 °C) | self-splicing fitness (ln) (37 °C) |
| --- | --- | --- |
| UCAGAGCAAUAUUACGGGUC | -3.97 ± 0.34 | -2.12 ± 0.32 |
| UCAGAGCAAUAUUACGGUGC | -3.88 ± 0.35 | -0.485 ± 0.15 |
| UCAGAGCAAUAUUACGUCAG | -2.84 ± 0.3 | -2.41 ± 0.29 |
| UCAGAGCAAUAUUACGUCCU | -3.91 ± 0.42 |  |
| UCAGAGCAAUAUUACGUUGC |  | -1.48 ± 0.32 |
| UCAGAGCAAUAUUACGUUUU | -3.84 ± 0.26 | -3.13 ± 0.26 |
| UCAUAGCAAUAUUACGACGA | -0.24 ± 0.096 | -0.532 ± 0.11 |
| UCAUAGCAAUAUUACGACUC | -2.18 ± 0.37 | -1.46 ± 0.37 |
| UCAUAGCAAUAUUACGAGAC | -2.84 ± 0.31 | -2.03 ± 0.34 |
| UCAUAGCAAUAUUACGAGCG | -1.95 ± 0.12 | -0.509 ± 0.13 |
| UCAUAGCAAUAUUACGAGCU | -2.69 ± 0.26 | -2.72 ± 0.3 |
| UCAUAGCAAUAUUACGAGGA | -3.42 ± 0.34 | -0.473 ± 0.21 |
| UCAUAGCAAUAUUACGAGGG | -2.24 ± 0.21 | -1.83 ± 0.29 |
| UCAUAGCAAUAUUACGAUUA | -0.984 ± 0.17 | -0.81 ± 0.25 |
| UCAUAGCAAUAUUACGCCUC | -2.43 ± 0.31 | -1.04 ± 0.2 |
| UCAUAGCAAUAUUACGCGAC |  | -1.46 ± 0.46 |
| UCAUAGCAAUAUUACGCGCG | -0.405 ± 0.3 | -0.412 ± 0.21 |
| UCAUAGCAAUAUUACGCGCU | -3.22 ± 0.42 |  |
| UCAUAGCAAUAUUACGCGUA | -1.44 ± 0.09 | -0.884 ± 0.08 |
| UCAUAGCAAUAUUACGCUUG | -1.97 ± 0.15 | -2 ± 0.19 |
| UCAUAGCAAUAUUACGGAGU | -3.88 ± 0.34 | -2.86 ± 0.25 |
| UCAUAGCAAUAUUACGGAUG | -2.58 ± 0.21 | -2.07 ± 0.21 |
| UCAUAGCAAUAUUACGUAUU | -2.48 ± 0.22 | -2.85 ± 0.27 |
| UCAUAGCAAUAUUACGUCCG | 0.46 ± 0.24 | -1.67 ± 0.29 |
| UCAUAGCAAUAUUACGUGGG | -3.39 ± 0.16 | -1.75 ± 0.098 |

| Sequence | self-splicing fitness (ln) (30 °C) | self-splicing fitness (ln) (37 °C) |
| --- | --- | --- |
| UCAUAGCAAUAUUACGUUAC | -3.58 ± 0.29 | -3.01 ± 0.33 |
| UCAUAGCAAUAUUACGUUUC | -3.79 ± 0.43 | -1.72 ± 0.23 |
| UCCAAGCAAUAUUACGAAAA | -2.15 ± 0.18 | -0.93 ± 0.12 |
| UCCAAGCAAUAUUACGAAGG | -1.32 ± 0.11 | -0.206 ± 0.15 |
| UCCAAGCAAUAUUACGAGAU | -3.54 ± 0.18 |  |
| UCCAAGCAAUAUUACGAGGA | -2.7 ± 0.2 | -2.3 ± 0.23 |
| UCCAAGCAAUAUUACGAUCC |  | -0.628 ± 0.48 |
| UCCAAGCAAUAUUACGAUUU | -3.72 ± 0.26 | -2.71 ± 0.28 |
| UCCAAGCAAUAUUACGCCCA | -0.733 ± 0.14 | -1.07 ± 0.21 |
| UCCAAGCAAUAUUACGCGUC | -3.21 ± 0.1 | -2.63 ± 0.11 |
| UCCAAGCAAUAUUACGCUAG | -3.67 ± 0.32 | -3.6 ± 0.35 |
| UCCAAGCAAUAUUACGGAAC |  | -3.52 ± 0.35 |
| UCCAAGCAAUAUUACGGACA | -2.37 ± 0.11 | -0.757 ± 0.084 |
| UCCAAGCAAUAUUACGGCAA | -0.817 ± 0.095 | -0.0878 ± 0.095 |
| UCCAAGCAAUAUUACGGCGG | -1.42 ± 0.079 | -0.773 ± 0.092 |
| UCCAAGCAAUAUUACGGGAA | -1.07 ± 0.078 | -0.547 ± 0.079 |
| UCCAAGCAAUAUUACGGGGC | -4.07 ± 0.23 | -3.13 ± 0.2 |
| UCCAAGCAAUAUUACGGUAC | -4.3 ± 0.23 | -2.81 ± 0.24 |
| UCCAAGCAAUAUUACGGUCA | -0.259 ± 0.06 | 0.0746 ± 0.065 |
| UCCAAGCAAUAUUACGUGAA | -0.666 ± 0.074 | 0.295 ± 0.1 |
| UCCAAGCAAUAUUACGUGAU | -3.53 ± 0.12 | -1.31 ± 0.097 |
| UCCAAGCAAUAUUACGUGCG | -3.59 ± 0.15 | -1.68 ± 0.13 |
| UCCAAGCAAUAUUACGUGUU | -3.46 ± 0.15 | -1.85 ± 0.13 |
| UCCAAGCAAUAUUACGUUGC | -3.7 ± 0.17 | -2.41 ± 0.19 |
| UCCCAGCAAUAUUACGACCU | -2.88 ± 0.27 | -1.69 ± 0.35 |

| Sequence | self-splicing fitness (ln) (30 °C) | self-splicing fitness (ln) (37 °C) |
| --- | --- | --- |
| UCCCAGCAAUAUUACGACGC | -2.81 ± 0.19 | -0.519 ± 0.23 |
| UCCCAGCAAUAUUACGACUU | -3.04 ± 0.17 | -1.79 ± 0.14 |
| UCCCAGCAAUAUUACGAUGG | -3.71 ± 0.13 | -2.31 ± 0.15 |
| UCCCAGCAAUAUUACGCAAA | -2.54 ± 0.18 | -0.641 ± 0.14 |
| UCCCAGCAAUAUUACGCAAC | -3.01 ± 0.37 | -2.19 ± 0.37 |
| UCCCAGCAAUAUUACGCUCG | -2.99 ± 0.18 | -2.15 ± 0.29 |
| UCCCAGCAAUAUUACGGCAG | -4.36 ± 0.29 | -2.58 ± 0.2 |
| UCCCAGCAAUAUUACGGCGU | -0.605 ± 0.057 | 0.275 ± 0.071 |
| UCCCAGCAAUAUUACGGGCU | -1.71 ± 0.066 | -1.32 ± 0.087 |
| UCCCAGCAAUAUUACGGGGA | -3.53 ± 0.17 | -2.43 ± 0.16 |
| UCCCAGCAAUAUUACGGGGC | -2.72 ± 0.17 | -2.84 ± 0.22 |
| UCCCAGCAAUAUUACGGUAA | 0.0812 ± 0.099 | 0.262 ± 0.1 |
| UCCCAGCAAUAUUACGGUGG | -3.65 ± 0.15 | -2.5 ± 0.15 |
| UCCCAGCAAUAUUACGUGAA | 0.116 ± 0.045 | 0.582 ± 0.067 |
| UCCCAGCAAUAUUACGUGGC | -3.54 ± 0.15 | -2.92 ± 0.23 |
| UCCCAGCAAUAUUACGUUAA | -1.89 ± 0.093 | -0.696 ± 0.085 |
| UCCCAGCAAUAUUACGUUAU | -4.35 ± 0.18 | -2.47 ± 0.17 |
| UCCCAGCAAUAUUACGUUCA | -0.991 ± 0.093 | -0.824 ± 0.1 |
| UCCGAGCAAUAUUACGAGGA | -3.04 ± 0.25 | -2.5 ± 0.29 |
| UCCGAGCAAUAUUACGAUGA | -0.4 ± 0.068 | -0.0382 ± 0.079 |
| UCCGAGCAAUAUUACGAUGC | -1.93 ± 0.19 |  |
| UCCGAGCAAUAUUACGCCCU | -2.74 ± 0.31 |  |
| UCCGAGCAAUAUUACGCGCC | -2.88 ± 0.4 |  |
| UCCGAGCAAUAUUACGGAAG | -3.67 ± 0.44 | -1.82 ± 0.28 |
| UCCGAGCAAUAUUACGGAGC | -3.17 ± 0.25 | -2.67 ± 0.26 |
